Experimental data reported in patent publication US7749976B2, “Isolated PTPMT1 protein which mediates insulin production and uses thereof” (The Regents of the University of California, priority 2005, dated 2010).
Marks after values point to notes of the source that are not given here.

Key:
PLIP = biological target: T1, PLIP (Mus musculus, UniProt Q66GT5); experiment: Phosphatase activity of various PTPs (malachite green / radiolabeled protein substrates); type: biochemical, murine; conditions: for Phosphatase activity, PLIP: mole of phosphate released/min/mol of enzyme, pH 5.5, triplicate, this study
T1 construct: ligating a PCR product encoding full-length PLIP; made in house; host or cells: Escherichia coli BL21 (DE3) CodonPlus RIL
T1 sequence (Q66GT5 32-193): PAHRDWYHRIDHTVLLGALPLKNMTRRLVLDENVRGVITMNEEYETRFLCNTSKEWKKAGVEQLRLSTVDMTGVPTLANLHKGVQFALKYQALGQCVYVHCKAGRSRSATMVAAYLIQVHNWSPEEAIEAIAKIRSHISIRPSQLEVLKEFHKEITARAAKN
Method: Recombinant murine PLIP was expressed as a fusion protein with N-terminal GST and 6-His tags in Escherichia coli BL21 (DE3) CodonPlus RIL cells (Stratagene). The expression construct was assembled by ligating a PCR product encoding full-length PLIP into the 5′-EcoR1 and 3′-Xho1 sites of a modified pET41 vector (pSJ6), kindly provided by Zhaohui Xu (University of Michigan). […] Cultures were then chilled on ice for 20 min, supplied with fresh antibiotics, induced with IPTG to a final concentration of 0.4 mM, and allowed to grow overnight @ 25° C., as previously described (Taylor and Dixon, 2003). All subsequent steps were performed @ 4° C. The cultures were pelleted by spinning @ 6000 rpm for 10 min in a Sorvall GSA rotor, resuspended in 30 ml of buffer (20 mM Imidazole, 50 mM Tris pH 7.4, 300 mM NaCl) with Complete protease inhibitors (Roche), and lysed via French Press. Insoluble material was removed by centrifugation @ 50,000 rpm for 30 min. The fusion protein was purified from the soluble supernatant first over Ni^2+ agarose beads, and then by successive separation on Superdex 75 and 200 gel filtration columns (Amersham). The resulting protein was concentrated, flash frozen in liquid nitrogen, and stored @−80° C. in 25% glycerol, 2 mM EDTA, and 2 mM DTT until use.
Di-C8 phosphoinosites (Echelon) and Dioleoyl-phosphatidylserine (Sigma) were dried together in a Speed Vac and resuspended via sonication in 18 μl assay buffer (100 mM sodium acetate, 50 mM bis-Tris, 50 mM Tris (pH 5.5), 10 mM DTT) to final concentrations of 50 μM and 500 μM, respectively. After prewarming at 37° C. for 5 min, reactions were initiated by the addition of 20 to 2000 ng of GST-PLIP diluted in assay buffer containing 1.0 mg/ml gelatin. Reactions were quenched after 5-30 min by the addition of 20 μl 0.1 M N-ethylmaleimide, and spun at 18,000×g for 10 min to sediment the lipid aggregates. […] Samples were allowed to sit for 40 minutes for color development before measuring absorbance at 620 nm. Inorganic phosphate release was quantitated by comparison to a standard curve of KH2PO4 in dH2O. […]

VHR = VHR (Homo sapiens, UniProt P51452); experiment: as above; type: biochemical; conditions: mole of phosphate released/min/mol of enzyme; triplicate; this study
Method: (§1) Di-C8 phosphoinosites (Echelon) and Dioleoyl-phosphatidylserine (Sigma) were dried together in a Speed Vac and resuspended via sonication in 18 μl assay buffer (100 mM sodium acetate, 50 mM bis-Tris, 50 mM Tris (pH 5.5), 10 mM DTT) to final concentrations of 50 μM and 500 μM, respectively. After prewarming at 37° C. for 5 min, reactions were initiated by the addition of 20 to 2000 ng of GST-PLIP diluted in assay buffer containing 1.0 mg/ml gelatin. Reactions were quenched after 5-30 min by the addition of 20 μl 0.1 M N-ethylmaleimide, and spun at 18,000×g for 10 min to sediment the lipid aggregates. Twenty-five microliters of the supernatant was added to 50 μl of malachite green reagent and vortexed. Samples were allowed to sit for 40 minutes for color development before measuring absorbance at 620 nm. Inorganic phosphate release was quantitated by comparison to a standard curve of KH2PO4 in dH2O.
(§2) Assays using radiolabeled protein substrates or pNPP were carried in assay buffer containing 50 mM sodium acetate, 25 mM bis-Tris, 25 mM Tris, and 2 mM DTT at pH 5.5 (GST-PLIP), 6.0 (VHR), or 7.0 (TC-PTP), at 30° C. Radiolabeled proteins and pNPP were prepared and assayed as previously reported (Taylor et al., 1997).
(§3) Due to the only recent emergence of PI(5)P as a known signaling molecule, few PTP's have been tested for activity against this substrate. To ensure that activity against PI(5)P is not a common feature of PTP's, membrane-bound di-C8 PI(5)P was assayed using a known tyrosine-specific PTP (TC-PTP) and a known dual-specific PTP (VHR) (Ishibashi et al., 1992; Zhao et al., 1992; Ruzzene et al., 1993; Zhou et al., 1994; Denu et al., 1995).

TC-PTP = biological target: T2, TC-PTP (Homo sapiens, UniProt P17706); experiment: as above; type: biochemical; conditions: mole of phosphate released/min/mol of enzyme; triplicate; this study
T2 sequence (P17706 1-415): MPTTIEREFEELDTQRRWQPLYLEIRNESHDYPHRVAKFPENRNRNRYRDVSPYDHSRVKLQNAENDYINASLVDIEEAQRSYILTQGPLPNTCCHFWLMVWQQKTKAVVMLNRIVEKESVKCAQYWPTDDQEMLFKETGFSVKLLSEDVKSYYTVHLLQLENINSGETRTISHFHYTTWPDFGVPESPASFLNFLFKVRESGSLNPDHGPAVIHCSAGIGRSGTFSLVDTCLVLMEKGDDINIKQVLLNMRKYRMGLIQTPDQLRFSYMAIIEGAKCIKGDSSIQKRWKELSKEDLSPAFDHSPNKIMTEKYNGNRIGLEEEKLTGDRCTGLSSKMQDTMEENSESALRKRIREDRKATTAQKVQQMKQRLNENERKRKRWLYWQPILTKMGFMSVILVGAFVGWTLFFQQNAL
Method: as §1, §2, §3

MTM1 = biological target: T3, MTM1 (Homo sapiens, UniProt Q13496); conditions: Ref. 32; cited from earlier work
T3 sequence (Q13496 1-603): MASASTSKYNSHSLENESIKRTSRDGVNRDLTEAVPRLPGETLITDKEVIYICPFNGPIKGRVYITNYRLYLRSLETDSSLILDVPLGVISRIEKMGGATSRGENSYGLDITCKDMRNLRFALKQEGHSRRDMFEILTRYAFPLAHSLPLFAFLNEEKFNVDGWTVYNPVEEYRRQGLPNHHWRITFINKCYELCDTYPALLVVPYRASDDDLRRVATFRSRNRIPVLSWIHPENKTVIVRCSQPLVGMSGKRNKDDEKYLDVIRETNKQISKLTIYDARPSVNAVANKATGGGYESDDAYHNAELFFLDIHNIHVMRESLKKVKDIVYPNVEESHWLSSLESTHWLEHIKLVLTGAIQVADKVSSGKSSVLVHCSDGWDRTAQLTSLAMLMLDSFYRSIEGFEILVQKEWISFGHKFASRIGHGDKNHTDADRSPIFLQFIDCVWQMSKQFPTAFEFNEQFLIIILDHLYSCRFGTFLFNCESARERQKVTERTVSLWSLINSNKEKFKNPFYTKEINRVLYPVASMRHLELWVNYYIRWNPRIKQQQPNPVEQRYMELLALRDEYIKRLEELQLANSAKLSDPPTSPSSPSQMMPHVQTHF

PTEN = PTEN (Homo sapiens, UniProt P60484); conditions: protein substrates; Ref. 43; cited from earlier work
Sequence of PTEN (P60484 whole entry, species assumed): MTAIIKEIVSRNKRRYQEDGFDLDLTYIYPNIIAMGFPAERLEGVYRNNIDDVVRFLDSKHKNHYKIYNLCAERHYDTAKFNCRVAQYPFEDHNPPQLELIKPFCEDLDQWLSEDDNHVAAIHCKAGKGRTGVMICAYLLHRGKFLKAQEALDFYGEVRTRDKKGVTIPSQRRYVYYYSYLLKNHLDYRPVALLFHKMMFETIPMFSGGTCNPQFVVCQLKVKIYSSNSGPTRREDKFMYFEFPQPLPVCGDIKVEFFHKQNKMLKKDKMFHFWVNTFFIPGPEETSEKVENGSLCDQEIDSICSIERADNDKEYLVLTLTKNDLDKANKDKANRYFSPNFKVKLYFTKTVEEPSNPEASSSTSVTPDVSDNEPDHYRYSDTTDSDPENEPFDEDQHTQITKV

Sequence of VHR (P51452 whole entry, species assumed): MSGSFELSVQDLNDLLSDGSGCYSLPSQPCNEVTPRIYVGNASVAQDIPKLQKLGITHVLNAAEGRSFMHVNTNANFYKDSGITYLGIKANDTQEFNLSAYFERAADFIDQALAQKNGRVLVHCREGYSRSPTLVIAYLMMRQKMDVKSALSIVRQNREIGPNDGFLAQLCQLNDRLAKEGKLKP

B1: myelin basic protein: radiolabeled myelin basic protein (protein, UniProt P02686 1-304, looked up)
Myelin basic protein: MGNHAGKRELNAEKASTNSETNRGESEKKRNLGELSRTTSEDNEVFGEADANQNNGTSSQDTAVTDSKRTADPKNAWQDAHPADPGSRPHLIRLFSRDAPGREDNTFKDRPSESDELQTIQEDSAATSESLDVMASQKRPSQRHGSKYLATASTMDHARHGFLPRHRDTGILDSIGRFFGGDRGAPKRGSGKDSHHPARTAHYGSLPQKSHGRTQDENPVVHFFKNIVTPRTPPPSQGKGRGLSLSRFSWGAEGQRPGFGYGGRASDYKSAHKGFKGVDAQGTLSKIFKLGGRDSRSGSPMARR
modifications: radiolabeled
In the case of B1, the “PLIP activity, fold lower than against PI(5)P” value (PLIP; radiolabeled protein substrates) is reported as “approximately 1000 fold”.

B2: MyBP Tyr(P): radiolabeled myelin basic protein substrate, tyrosine phosphorylated (protein, UniProt P02686 1-304, looked up)
Myelin basic protein: B1 Myelin basic protein
modifications: radiolabeled, tyrosine-phosphorylated
For B2, the “Phosphatase activity, PLIP” value (PLIP) was 0.1^b mol/(min mol), the “Phosphatase activity, VHR” value (VHR) was 0.5^b mol/(min mol) and the “Phosphatase activity, TC-PTP” value (TC-PTP) was 195^b mol/(min mol). For the same molecule, the “Phosphatase activity, MTM1” value (MTM1) was ~0.0^d mol/(min mol) and the “Phosphatase activity, PTEN” value (PTEN) was ~0.0^c mol/(min mol).

B3: MyBP Ser(P)/Tyr(P): radiolabeled myelin basic protein substrate (protein, UniProt P02686 1-304, looked up)
Myelin basic protein: B1 Myelin basic protein
modifications: radiolabeled, Ser/Tyr-phosphorylated
notes: radiolabeled myelin basic protein substrate
For B3, the “Phosphatase activity, PLIP” value (PLIP) was ~0.0^b mol/(min mol), the “Phosphatase activity, VHR” value (VHR) was ~0.0^b mol/(min mol) and the “Phosphatase activity, TC-PTP” value (TC-PTP) was ~0.0^b mol/(min mol). For the same molecule, the “Phosphatase activity, MTM1” value (MTM1) was ~0.0^d mol/(min mol) and the “Phosphatase activity, PTEN” value (PTEN) was ~0.0^c mol/(min mol).
